Test results reported in IntAct's records for PubMed 18509061.

B1: Histone deacetylase 7 (Mus musculus), Q8C2B3-1 (parent)
chain: MHSPGAGCPALQPDTPGSQPQPMDLRVGQRPTVEPPPEPALLTLQHPQRLHRHLFLAGLHQQQRSAEPMRLSMDPPMPELQGGQQEQELRQLLNKDKSKRSAVASSVVKQKLAEVILKKQQAALERTVHPSSPSIPYRTLEPLDTEGAARSVLSSFLPPVPSLPTEPPEHFPLRKTVSEPNLKLRYKPKKSLERRKNPLLRKESAPPSLRRRPAETLGDSSPSSSSTPASGCSSPNDSEHGPNPALGSEADGDRRTHSTLGPRGPVLGNPHAPLFLHHGLEPEAGGTLPSRLQPILLLDPSVSHAPLWTVPGLGPLPFHFAQPLLTTERLSGSGLHRPLNRTRSEPLPPSATASPLLAPLQPRQDRLKPHVQLIKPAISPPQRPAKPSEKPRLRQIPSAEDLETDGGGVGPMANDGLEHRESGRGPPEGRGSISLQQHQQVPPWEQQHLAGRLSQGSPGDSVLIPLAQVGHRPLSRTQSSPAAPVSLLSPEPTCQTQVLNSSETPATGLVYDSVMLKHQCSCGDNSKHPEHAGRIQSIWSRLQERGLRSQCECLRGRKASLEELQSVHSERHVLLYGTNPLSRLKLDNGKLTGLLAQRTFVMLPCGGVGVDTDTIWNELHSSNAARWAAGSVTDLAFKVASRELKNGFAVVRPPGHHADHSTAMGFCFFNSVAIACRQLQQHGKASKILIVDWDVHHGNGTQQTFYQDPSVLYISLHRHDDGNFFPGSGAVDEVGTGSGEGFNVNVAWAGGLDPPMGDPEYLAAFRIVVMPIAREFAPDLVLVSAGFDAAEGHPAPLGGYHVSAKCFGYMTQQLMNLAGGAVVLALEGGHDLTAICDASEACVAALLGNKVDPLSEESWKQKPNLSAIRSLEAVVRVHRKYWGCMQRLASCPDSWLPRVPGADAEVEAVTALASLSVGILAEDRPSERLVEEEEPMNL
partner: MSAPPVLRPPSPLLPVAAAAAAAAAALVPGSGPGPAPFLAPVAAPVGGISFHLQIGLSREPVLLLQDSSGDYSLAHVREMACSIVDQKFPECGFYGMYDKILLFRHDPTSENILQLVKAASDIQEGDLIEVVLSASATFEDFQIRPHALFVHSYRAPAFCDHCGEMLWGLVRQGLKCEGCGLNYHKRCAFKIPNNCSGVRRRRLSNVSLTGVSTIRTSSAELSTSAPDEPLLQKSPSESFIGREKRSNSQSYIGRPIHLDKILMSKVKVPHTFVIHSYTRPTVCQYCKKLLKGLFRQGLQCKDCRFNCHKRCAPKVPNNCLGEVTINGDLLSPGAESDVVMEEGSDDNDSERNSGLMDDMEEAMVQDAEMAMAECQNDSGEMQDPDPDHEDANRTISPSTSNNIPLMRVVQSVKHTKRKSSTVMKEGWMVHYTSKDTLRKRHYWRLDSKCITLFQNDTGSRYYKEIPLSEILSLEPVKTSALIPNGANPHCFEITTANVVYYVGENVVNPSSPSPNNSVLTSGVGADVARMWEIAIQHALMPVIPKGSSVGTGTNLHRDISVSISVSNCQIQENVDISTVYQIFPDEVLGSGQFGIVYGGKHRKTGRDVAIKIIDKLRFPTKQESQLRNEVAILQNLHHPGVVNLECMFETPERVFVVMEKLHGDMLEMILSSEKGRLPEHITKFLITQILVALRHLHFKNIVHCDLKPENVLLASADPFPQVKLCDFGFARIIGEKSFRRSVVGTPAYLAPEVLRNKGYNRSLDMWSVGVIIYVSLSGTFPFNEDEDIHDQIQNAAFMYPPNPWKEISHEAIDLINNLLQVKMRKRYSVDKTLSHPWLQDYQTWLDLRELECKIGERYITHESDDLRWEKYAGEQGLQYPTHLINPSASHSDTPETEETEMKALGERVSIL

Variants of: B1
Settings: with kpcd1_human PRKD1, Q15139

Q: For S178A;S344A;S479A, which “effect of a mutation on the interaction” value is on record?
A: increasing interaction strength
